Article PMC10104300, “Conserved intramolecular networks in GDAP1 are closely connected to CMT-linked mutations and protein stability” (PLOS ONE, 2023)
Positions count from the first letter of the chain named. Numbers in names are those of the source.

Key:
[1] = biological target: wild-type GDAP1 (GDAP1Δ303–358) (human) (UniProt Q8TB36); assay: batch-mode SAXS; concentration range 1–4 mg/ml, P12 beamline EMBL/DESY
[2] = biological target: the molecule itself; assay: SEC-SAXS; variants in GDAP1Δ303–358; 100 μl at 1.7–36 mg/ml (maximum concentration for each variant) injected onto a BioSEC3-300 column, 25 mM HEPES pH 7.5, 300 mM NaCl, +15°C; top of the peak analysed
[3] = biological target: the molecule itself; assay: SEC-SAXS; Arg310 mutants in GDAP1Δ319–358, at lower concentration than all the other mutants; BioSEC3-300 column, 25 mM HEPES pH 7.5, 300 mM NaCl, +15°C; two peaks (dimer and monomer)

For “wild-type GDAP1 (GDAP1Δ303–358) (from UniProt Q8TB36-1 1-302) (domain or fragment)”, the stoichiometry N [1] was 2.

B1: GDAP1Δ303–358 R120Q (domain or fragment, human, UniProt Q8TB36-1 1-302, looked up)
chain: MAERQEEQRGSPPLRAEGKADAEVKLILYHWTHSFSSQKVRLVIAEKALKCEEHDVSLPLSEHNEPWFMRLNSTGEVPVLIHGENIICEATQIIDYLEQTFLDERTPRLMPDKESMYYPQVQHYRELLDSLPMDAYTHGCILHPELTVDSMIPAYATTRIRSQIGNTESELKKLAEENPDLQEAYIAKQKRLKSKLLDHDNVKYLKKILDELEKVLDQVETELQRRNEETPEEGQQPWLCGESFTLADVSLAVTLHRLKFLGFARRNWGNGKRPNLETYYERVLKRKTFNKVLGHVNNILIS
notes: human GDAP1 lacking residues 303-358 (GDAP1Δ303–358) with the CMT-linked mutation R120Q; CMT disease variant; source: E. coli BL21(DE3), autoinduction, purified (Ni-NTA, TEV cleavage, reverse Ni-NTA, SEC); not shown: His6, N-terminal, cleaved
In the case of B1, the “stoichiometry N” value [2] is reported as 2.

B2: GDAP1Δ303–358 A247V (domain or fragment, human, UniProt Q8TB36-1 1-302, looked up)
chain: B1 chain with Q120R, A247V
notes: human GDAP1 lacking residues 303-358 (GDAP1Δ303–358) with the CMT-linked mutation A247V; CMT disease variant; source: E. coli BL21(DE3), autoinduction, purified (Ni-NTA, TEV cleavage, reverse Ni-NTA, SEC); not shown: His6, N-terminal, cleaved
In the case of B2, the “stoichiometry N” value [2] is reported as 2.

B3: GDAP1Δ303–358 H256R (domain or fragment, human, UniProt Q8TB36-1 1-302, looked up)
chain: B1 chain with Q120R, H256R
notes: human GDAP1 lacking residues 303-358 (GDAP1Δ303–358) with the CMT-linked mutation H256R; CMT disease variant; source: E. coli BL21(DE3), autoinduction, purified (Ni-NTA, TEV cleavage, reverse Ni-NTA, SEC); not shown: His6, N-terminal, cleaved
B3 was tested, and the “stoichiometry N” value [2] was 2.

B4: GDAP1Δ303–358 R161H (domain or fragment, human, UniProt Q8TB36-1 1-302, looked up)
chain: B1 chain with Q120R, R161H
notes: human GDAP1 lacking residues 303-358 (GDAP1Δ303–358) with the CMT-linked mutation R161H; CMT disease variant; source: E. coli BL21(DE3), autoinduction, purified (Ni-NTA, TEV cleavage, reverse Ni-NTA, SEC); not shown: His6, N-terminal, cleaved
B4 was tested, and the “stoichiometry N” value [2] was 2.

B5: GDAP1Δ303–358 R282H (domain or fragment, human, UniProt Q8TB36-1 1-302, looked up)
chain: B1 chain with Q120R, R282H
notes: human GDAP1 lacking residues 303-358 (GDAP1Δ303–358) with the CMT-linked mutation R282H; CMT disease variant; source: E. coli BL21(DE3), autoinduction, purified (Ni-NTA, TEV cleavage, reverse Ni-NTA, SEC); not shown: His6, N-terminal, cleaved
For B5, the “stoichiometry N” value [2] was 2.

B6: GDAP1Δ319–358 R310Q (domain or fragment, human, UniProt Q8TB36-1 1-318, looked up)
chain: MAERQEEQRGSPPLRAEGKADAEVKLILYHWTHSFSSQKVRLVIAEKALKCEEHDVSLPLSEHNEPWFMRLNSTGEVPVLIHGENIICEATQIIDYLEQTFLDERTPRLMPDKESMYYPRVQHYRELLDSLPMDAYTHGCILHPELTVDSMIPAYATTRIRSQIGNTESELKKLAEENPDLQEAYIAKQKRLKSKLLDHDNVKYLKKILDELEKVLDQVETELQRRNEETPEEGQQPWLCGESFTLADVSLAVTLHRLKFLGFARRNWGNGKRPNLETYYERVLKRKTFNKVLGHVNNILISAVLPTAFQVAKKRAPK
notes: human GDAP1 lacking residues 319-358 (GDAP1Δ319–358) with the CMT-linked mutation R310Q; CMT disease variant; eluted as dimer (main peak) and monomer; source: E. coli BL21(DE3), autoinduction, purified (Ni-NTA, TEV cleavage, reverse Ni-NTA, SEC); not shown: His6, N-terminal, cleaved
With B6 the “stoichiometry N” value [3] was 2.

B7: GDAP1Δ319–358 R310W (domain or fragment, human, UniProt Q8TB36-1 1-318, looked up)
chain: B6 chain with Q310W
notes: human GDAP1 lacking residues 319-358 (GDAP1Δ319–358) with the CMT-linked mutation R310W; CMT disease variant; eluted as monomer (highest peak) and dimer; source: E. coli BL21(DE3), autoinduction, purified (Ni-NTA, TEV cleavage, reverse Ni-NTA, SEC); not shown: His6, N-terminal, cleaved
B7 was tested, and the “stoichiometry N” value [3] was 2.
